Data on two molecules can be found in paper PMC10682658, “Revisiting bacterial cytolethal distending toxin structure and function” (Frontiers in Cellular and Infection Microbiology, 2023).

Experiment [1] has as its target T1, NTA-labeled Cj-CdtB (polyhistidine-tagged Cj-CdtB labelled with NTA fluorescent dye) (Campylobacter jejuni, UniProt Q0PC57 1-265, NTA - Atto 647 N dye on the polyhistidine-tagged subunit).
T1 construct: source: recombinant, generated and purified as previously described (Eshraghi et al., 2010)
Put plainly: MST; NTA dye-labeled polyhistidine-tagged subunit (0.1 μM) with unlabeled subunit without polyhistidine tag (0.02/0.04-20 μM), 1 h at 37°C, read at 37°C; Monolith NT.115; fraction bound fit to log [Cj-CDT subunit] vs response; KD of A + B* called apparent. Conditions: both partners purified.

The target of experiment [2] is T2, NTA-labeled Cj-CdtA (polyhistidine-tagged Cj-CdtA labelled with NTA fluorescent dye) (Campylobacter jejuni, UniProt A1VXG4 20-268, NTA - Atto 647 N dye on the polyhistidine-tagged subunit).
T2 construct: source: recombinant, generated and purified as previously described (Eshraghi et al., 2010)
T2 sequence: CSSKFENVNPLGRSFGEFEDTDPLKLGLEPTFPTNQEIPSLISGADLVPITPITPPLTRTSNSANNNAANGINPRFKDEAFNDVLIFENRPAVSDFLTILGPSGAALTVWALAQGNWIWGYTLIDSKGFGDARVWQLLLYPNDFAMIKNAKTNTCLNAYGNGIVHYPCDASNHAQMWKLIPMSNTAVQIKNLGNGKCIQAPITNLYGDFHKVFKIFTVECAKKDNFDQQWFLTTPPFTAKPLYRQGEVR
The experiment is described as above. Conditions: both partners purified.

B1: unlabeled Cj-CdtC with the polyhistidine tag removed (natural protein)
chain: TPTGDLKDFTEMVSIRSLETGIFLSAFRDTSKDPIDQNWNIKEIVLSDELKQKDKLADELPFGYVQFTNPKESDLCLAILEDGTFGAKSCQDDLKDGKLETVFSIMPTTTSAVQIRSLVLESDECIVTFFNPNIPIQKRFGIAPCTLDPIFFAEVNELMIITPPLTAATPLE
notes: source: recombinant, generated and purified as previously described (Eshraghi et al., 2010); polyhistidine removed with biotinylated thrombin
Take B1: in experiment [1], the Kd turned out to be 480 ± 100 nM and the “first concentration of titrant yielding detectable signal above background” value (shortened to “first concentration”) turned out to be 0.15 µM. In experiment [2], the Kd is 650 ± 100 nM and the “first concentration” value came to 0.31 µM.

B2: unlabeled Cj-CdtA with the polyhistidine tag removed (natural protein)
chain: CSSKFENVNPLGRSFGEFEDTDPLKLGLEPTFPTNQEIPSLISGADLVPITPITPPLTRTSNSANNNAANGINPRFKDEAFNDVLIFENRPAVSDFLTILGPSGAALTVWALAQGNWIWGYTLIDSKGFGDARVWQLLLYPNDFAMIKNAKTNTCLNAYGNGIVHYPCDASNHAQMWKLIPMSNTAVQIKNLGNGKCIQAPITNLYGDFHKVFKIFTVECAKKDNFDQQWFLTTPPFTAKPLYRQGEVR
notes: as for B1
Turning to B2, in experiment [1], the Kd is more than 20000 nM and the “first concentration” value stood at 2 µM.
